# According to PMC3115796 (The Journal of Cell Biology, 2011):
# T1: CLIPCG12 (human, UniProt P30622 48-300)
# T1 sequence: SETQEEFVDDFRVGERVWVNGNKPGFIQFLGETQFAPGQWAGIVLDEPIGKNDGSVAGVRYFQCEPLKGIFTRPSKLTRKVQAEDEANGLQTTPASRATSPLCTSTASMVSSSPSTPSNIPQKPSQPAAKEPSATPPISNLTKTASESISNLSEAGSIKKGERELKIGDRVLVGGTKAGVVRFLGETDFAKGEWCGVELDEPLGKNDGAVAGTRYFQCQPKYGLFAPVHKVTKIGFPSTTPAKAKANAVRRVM
# B1: GST–CLIP-170-N (domain or fragment)
# chain: MSMLKPSGLKAPTKILKPGSTALKTPAAAAAPLEKTVPSEKASGPPSSETQEEFVDDFRVGERVWVNGNKPGFIQFLGETQFAPGQWAGIVLDEPIGKNDGSVAGVRYFQCEPLKGIFTRPSKLTRKVQAEDEANGLQTAHARAASPLSTAAATMVSSSPATPSNIPQKPSQPVAKETSATPQISNLTKTASESISNLSEAGSVKKGERELKIGDRVLVGGTKAGVVRFLGETDFAKGEWCGVELDEPLGKNDGAVAGTRYFQCQPKYGLFAPVHKVTKIGFPSTTPAKAKAAAVRRVMATTPASLKRSP
# B2: SLAIN2 N-terminal fragment (residues 1–43) (domain or fragment)
# chain: not shown
# Tests used:
# BioGFP-SLAIN2 = BioGFP-SLAIN2 (human, UniProt Q9P270 1-581, biotin (substrate linker of the biotin ligase BirA, co-expressed)); experiment: pull-down
# SEC-MALS = target: the molecule itself; experiment: SEC-MALS
# CLIPCG12 = target: T1, CLIPCG12; experiment: ITC
binder,measurement,setting,value
B1,binding result,BioGFP-SLAIN2,binds
B2,stoichiometry N,SEC-MALS,2
GSMKDDSWKDGCY [SLAIN2c],stoichiometry N,CLIPCG12,2
